The target in test [1] is T1, VEGF-A binding to VEGFR1 receptor (Homo sapiens, UniProt P15692).
T1 sequence (P15692 214-315 limits assumed): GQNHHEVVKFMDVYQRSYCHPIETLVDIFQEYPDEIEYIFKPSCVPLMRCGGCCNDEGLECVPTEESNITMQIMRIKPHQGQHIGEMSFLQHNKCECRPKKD
Nature of the test: VEGF-A:VEGFR1 inhibition in Octet assay. The test is classed as biochemical. As to conditions: for inhibition at 0.08 µM: read-out: % inhibition at 80 nM compound, D-peptidic compounds.
Procedure: Compounds of interest were assessed for inhibition of VEGF-A:VEGFR1 in an Octet assay.
The resulting dimeric compounds were assayed for VEGF-A inhibition activity in an octet assay.

A further test concerns HUVEC cell proliferation. Particulars: read-out: IC50 for inhibition of cell proliferation in response to VEGF signaling; HUVEC, recombinant VEGF-A.
In test [2] the test system is VEGF-A signaling through VEGFR2. Put plainly: VEGFR2 luciferase reporter cell signaling assay (KDR/NFAT-RE HEK293). It counts as cell-based. Particulars: 150 pM VEGF-A; read-out: IC50, inhibition of VEGFR2 signaling (luciferase). (In general: A reporter such as luciferase makes a cellular process visible.)
Procedure: Here VEGF-A activates VEGFR2 signaling in 293 cells resulting in luciferase expression as a functional readout. Inhibition of VEGF-A signaling in this system results in a loss of luciferase signal.
Measurement of VEGF cellular signaling was performed using the VEGF Bioassay (Promega). Briefly, HEK293 cells are engineered to express VEGFR-2 coupled to a luciferase response element (KDR/NFAT-RE HEK293). VEGF signaling through VEGFR-2 mediates expression of luciferase which can be quantified using bioluminescence. […] Following incubation Bio-Glo is added to wells according to the manufacturer's protocol and relative luminescence units (RLUs) were measured on a PerkinElmer 2300 Enspire Multimode plate reader. Data plotted are mean±standard deviation of triplicate measurements. IC50 values were derived from 3-parameter fits using Prism (GraphPad) and error reported are derived from fits.
Test [3] concerns the target D-VEGF-A (8-109), synthetic mirror-image protein (Homo sapiens (Human)) (UniProt P15692). Nature of the test: SPR; L-peptidic compound on D-VEGF-A. In general terms: SPR reads the build-up and loss of mass on a sensor chip optically.
The target is the same in test [4]. Put plainly: competitive phage ELISA; L-peptidic compound on D-VEGF-A.
The target in test [5] is VEGF-A (form not stated) (UniProt P15692). Put plainly: Octet; inhibition of VEGF-A binding to VEGFR1. (In general: In BLI a coated tip is dipped into the sample, and binding shifts an interference pattern.)
For test [6] the target is unchanged. Nature of the test: Octet; inhibition of VEGF-A (10 nM) binding to VEGFR1.

Where a chain is given by its changes, count along the chain named. Where no end group is shown, it is not given here. [ ]: non-standard residue; d: D form.

Usually inhibition stands for how much of the control response was suppressed. Broadly, the % inhibition is the relative decrease from the control value, in per cent. Read a low % inhibition as a response near the control. What is called Kd is the constant that tells how readily two partners part at equilibrium. A high value points to weaker binding.

Source text for HUVEC cell proliferation: Here, HUVEC cell proliferation is increased in the presence of recombinant VEGF-A and antagonist compounds that block VEGF-A signaling reduce HUVEC cell proliferation.

Turning to “[dP][dA][dL][dL][dK][dN][dA][dK][dE][dD][dA][dI][dA][dE][dL][dK][dK][dA]G[dI][dT][dE][dP][dH][dV][dI][dS][dF][dI][dN][dH][dA][dP][dY][dV][dS][dH][dV][dN]G[dL][dK][dN][dA][dI][dL]G[dR][dT][dV][dP] [1.1.1.2 (pa, pis), pallknakedaiaelkkaGitephvisfinhapyvshvnGlknailGrtvp]”, the inhibition at 0.08 µM in test [1] came out at 18%.

Consider “[dT][dI][dD][dQ][dW][dL][dL][dK][dN][dA][dK][dE][dD][dA][dI][dA][dE][dL][dK][dK][dA]G[dI][dT][dE][dP][dH][dV][dI][dS][dF][dI][dN][dH][dA][dP][dY][dV][dS][dH][dV][dN]G[dL][dN][dA][dI][dL]G[dR][dT][dV][dP] [1.1.1(c21a) (-kaha, Grtvp), tidqwllknakedaiaelkkaGitephvisfinhapyvshvnGlnailGrtvp]”, for which the inhibition at 0.08 µM in test [1] was 27%.

In the case of bevacizumab [reference compound], the IC50 in the test on HUVEC cell proliferation turned out to be 0.7 nM; in test [2] it was 0.53 nM.

Regarding “tidqwllknakedaiaelkkaGitephvisfinhapyvshvnGlknailkahac(acetyl)”, the “% inhibition at 80 nM compound” value in test [1] (D-peptidic compounds) turned out to be 68%.

LLKNAKEDAIAELKKAGITEDHVFNFINHAPYVSHVNGLKNAILKAHA (designed binder) [1.1 (-tidqw) (L-peptidic)] gave a dissociation constant (Kd) in test [3] of 450 nM.

B1: 1.1 (-kaha, GehGsp) (L-peptidic) (designed binder)
chain: TIDQWLLKNAKEDAIAELKKAGITEDHVFNFINHAPYVSHVNGLKNAILGEHGSP
In test [4], B1 showed an IC50 of 14 nM.

B2: 1.1.1.2 (pa, pis) (D-peptidic) (designed binder)
chain: [dP][dA][dL][dL][dK][dN][dA][dK][dE][dD][dA][dI][dA][dE][dL][dK][dK][dA]G[dI][dT][dE][dP][dH][dV][dI][dS][dF][dI][dN][dH][dA][dP][dY][dV][dS][dH][dV][dN]G[dL][dK][dN][dA][dI][dL]G[dR][dT][dV][dP]
In the test with VEGF-A (form not stated) [5], B2 registered a % inhibition at 80 nM compound of 18%.

For the molecule LLKNAKEDAIAELKKAGITEPHVISFINHAPYVSHVNGLKNAILEDWYL (designed binder) [1.1.1(c21a) (-tidqw, -kaha, edwyl) (L-peptidic)], the IC50 in test [4] is 0.86 to 1.1 nM.

B3: 1.1 (D-peptidic) (designed binder)
chain: [dT][dI][dD][dQ][dW][dL][dL][dK][dN][dA][dK][dE][dD][dA][dI][dA][dE][dL][dK][dK][dA]G[dI][dT][dE][dD][dH][dV][dF][dN][dF][dI][dN][dH][dA][dP][dY][dV][dS][dH][dV][dN]G[dL][dK][dN][dA][dI][dL][dK][dA][dH][dA]
In turn, B3 registered an IC50 with VEGF-A (form not stated) [6] of 105 nM.

B4: 1.1 (L-peptidic) (designed binder)
chain: TIDQWLLKNAKEDAIAELKKAGITEDHVFNFINHAPYVSHVNGLKNAILKAHA
Consider B4, for which the Kd in test [3] stood at 140 nM. Further, in test [4], the IC50 was 100 to 105 nM.

B5: 1.1 (-kaha, edyl) (L-peptidic) (designed binder)
chain: B4 chain with K50E, A51D, H52Y, A53L
In turn, B5 came in with an IC50 in test [4] of 5 nM.

B6: 1.1 (-kaha, adfl) (L-peptidic) (designed binder)
chain: B4 chain with K50A, A51D, H52F, A53L
Regarding B6, the IC50 in test [4] was 12 nM.

The values above are taken from patent publication US20210061861A1, “D-PEPTIDIC COMPOUNDS FOR VEGF” (Reflexion Pharmaceuticals, Inc., priority 2019, published 2021).
